Measurements reported in US20180162923A1 (UNIVERSITY OF BRITISH COLUMBIA, published 2018).

Assays:
DU145 cells = test: flow cytometry on DU145 cells, rhIgGFc at 100 nM, detected with anti-IgGFc-specific PE secondary antibody (control)
PLEXIN B1 [1] = molecular target: T1, PLEXIN B1 (human, UniProt O43157 20-2135); test: alkaline phosphatase ligand binding assay on DU145 cells transfected with Plexin B1 siRNA B1 siRNA2 against scramble siRNA; APTag background subtracted
T1 construct: whole, on cells; Endogenous receptor on cells
T1 sequence (O43157 20-2135): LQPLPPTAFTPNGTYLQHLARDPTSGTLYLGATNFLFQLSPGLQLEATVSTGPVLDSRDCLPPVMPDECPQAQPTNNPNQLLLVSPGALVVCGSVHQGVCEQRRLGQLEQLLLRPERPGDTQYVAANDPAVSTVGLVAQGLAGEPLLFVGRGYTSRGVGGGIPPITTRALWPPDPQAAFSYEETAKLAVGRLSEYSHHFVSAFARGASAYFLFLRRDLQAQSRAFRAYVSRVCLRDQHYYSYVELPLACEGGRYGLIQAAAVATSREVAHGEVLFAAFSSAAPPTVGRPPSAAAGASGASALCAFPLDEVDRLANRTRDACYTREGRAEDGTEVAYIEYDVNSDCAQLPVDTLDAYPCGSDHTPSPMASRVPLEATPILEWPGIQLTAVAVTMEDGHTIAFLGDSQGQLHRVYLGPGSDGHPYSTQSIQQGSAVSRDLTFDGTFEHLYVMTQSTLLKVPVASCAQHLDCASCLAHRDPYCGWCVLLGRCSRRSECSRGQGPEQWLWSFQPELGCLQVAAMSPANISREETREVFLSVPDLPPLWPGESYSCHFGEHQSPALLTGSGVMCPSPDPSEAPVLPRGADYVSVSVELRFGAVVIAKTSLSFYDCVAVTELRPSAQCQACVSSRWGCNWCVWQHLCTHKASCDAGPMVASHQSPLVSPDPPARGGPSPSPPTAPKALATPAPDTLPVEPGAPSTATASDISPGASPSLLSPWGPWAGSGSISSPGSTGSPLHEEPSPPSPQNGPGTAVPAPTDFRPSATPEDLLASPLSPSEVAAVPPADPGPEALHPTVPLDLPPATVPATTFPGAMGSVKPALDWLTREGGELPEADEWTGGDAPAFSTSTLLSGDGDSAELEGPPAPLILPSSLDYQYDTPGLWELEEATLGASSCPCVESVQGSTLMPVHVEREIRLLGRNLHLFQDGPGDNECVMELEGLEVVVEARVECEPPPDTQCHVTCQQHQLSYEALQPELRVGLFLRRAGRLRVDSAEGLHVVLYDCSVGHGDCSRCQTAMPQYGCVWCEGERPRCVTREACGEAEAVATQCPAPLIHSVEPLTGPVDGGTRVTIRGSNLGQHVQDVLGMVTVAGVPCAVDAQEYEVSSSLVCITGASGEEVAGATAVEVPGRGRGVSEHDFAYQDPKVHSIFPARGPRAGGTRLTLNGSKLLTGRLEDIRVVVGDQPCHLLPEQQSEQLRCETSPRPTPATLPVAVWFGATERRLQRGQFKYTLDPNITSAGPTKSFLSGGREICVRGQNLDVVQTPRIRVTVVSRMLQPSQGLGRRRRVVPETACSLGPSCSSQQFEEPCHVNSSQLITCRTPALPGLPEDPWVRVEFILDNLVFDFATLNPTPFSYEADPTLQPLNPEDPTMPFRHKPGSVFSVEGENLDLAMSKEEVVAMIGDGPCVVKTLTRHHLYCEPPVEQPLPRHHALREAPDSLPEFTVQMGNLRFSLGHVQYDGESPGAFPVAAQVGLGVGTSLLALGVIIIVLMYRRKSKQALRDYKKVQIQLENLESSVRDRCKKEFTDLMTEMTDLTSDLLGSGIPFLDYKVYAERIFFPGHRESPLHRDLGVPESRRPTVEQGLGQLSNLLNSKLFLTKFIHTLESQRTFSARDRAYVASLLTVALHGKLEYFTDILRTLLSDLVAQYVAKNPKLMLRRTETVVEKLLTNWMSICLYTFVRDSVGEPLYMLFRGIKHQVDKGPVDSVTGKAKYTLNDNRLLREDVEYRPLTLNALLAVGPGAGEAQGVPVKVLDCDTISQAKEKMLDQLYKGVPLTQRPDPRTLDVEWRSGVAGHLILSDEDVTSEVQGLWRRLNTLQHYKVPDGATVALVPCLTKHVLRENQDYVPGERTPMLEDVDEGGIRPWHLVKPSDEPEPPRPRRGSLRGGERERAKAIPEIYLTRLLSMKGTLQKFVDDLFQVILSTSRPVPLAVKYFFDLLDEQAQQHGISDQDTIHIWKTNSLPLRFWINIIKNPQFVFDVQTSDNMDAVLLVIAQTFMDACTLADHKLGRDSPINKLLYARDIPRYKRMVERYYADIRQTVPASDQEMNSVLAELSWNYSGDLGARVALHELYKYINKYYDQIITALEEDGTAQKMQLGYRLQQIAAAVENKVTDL
Description: (§1) Cells were washed and then lysed. Plexin B1 levels were analyzed from lysates (30 μg) by polyacrylamide gel electrophoresis (PAGE). Western Blots were probed with anti-Plexin B1 and anti-phospho-Shc. Blots were re-probed with anti-vinculin and anti-Shc as loading control. DU145 cells were transfected with scramble siRNA, Plexin B1siRNA1 or PlexinB1 siRNA2 (10 nM) using RNAiMax™ reagent as directed by the manufacturer, (Invitrogen™, Missisauga, Ontario). Following 72 hours incubation the cells were replated at 20,000 cells/well in a 96-well flat bottom plate and let adhere for 4 hours. The remaining cells were lysed and assayed for PlexinB1 expression by Western Blot. The blot was reprobed with vinculin as loading control. Medium was replaced with DMEM without serum for 16 hours prior to the binding assay. […]
(§2) The binding assay was performed as previously described by […], J G. and LEDER, P. (1990), endogenous phosphatase heat inactivation was done in HBHA at 65° C. following the fixation step. Plate readings at 562 nm were taken initially and then every 24 hours. […]
(§3) DU145 cells transfected with scramble siRNA or, two distinct siRNAs targeting Plexin B1. […] AP-Sema3C binding to DU145 cells that were transfected with scramble or Plexin B1 siRNAs, where the mean and SEM AP-Sema3C binding performed was calculated in quadruplicate.

PLEXIN B1 [2] = molecular target: T1, PLEXIN B1; test: alkaline phosphatase ligand binding assay on DU145 cells B1 siRNA1 against scramble siRNA; APTag background subtracted
Description: as §1, §2, §3

| level of staining at 100 nM (DU145 cells) | fold reduction of binding on Plexin B1 knockdown against scramble siRNA (PLEXIN B1 [1]) | fold reduction of binding on Plexin B1 knockdown against scramble siRNA (PLEXIN B1 [2]) | Molecule |
| --- | --- | --- | --- |
| 6.01% |  |  | Recombinant human IgGFc |
|  | 1.9 fold | 2.4 fold | AP-SEMA3C (ligand, UniProt Q99985 21-751, looked up, Used as conditioned medium from 293T cells; also called AP-SEMA 3C construct; not shown: alkaline phosphatase tag of the APTag vector) GSSQPQARVYLTFDELRETKTSEYFSLSHHPLDYRILLMDEDQDRIYVGSKDHILSLNINNISQEALSVFWPASTIKVEECKMAGKDPTHGCGNFVRVIQTFNRTHLYVCGSGAFSPVCTYLNRGRRSEDQVFMIDSKCESGKGRCSFNPNVNTVSVMINEELFSGMYIDFMGTDAAIFRSLTKRNAVRTDQHNSKWLSEPMFVDAHVIPDGTDPNDAKVYFFFKEKLTDNNRSTKQIHSMIARICPNDTGGLRSLVNKWTTFLKARLVCSVTDEDGPETHFDELEDVFLLETDNPRTTLVYGIFTTSSSVFKGSAVCVYHLSDIQTVFNGPFAHKEGPNHQLISYQGRIPYPRPGTCPGGAFTPNMRTTKEFPDDVVTFIRNHPLMYNSIYPIHKRPLIVRIGTDYKYTKIAVDRVNAADGRYHVLFLGTDRGTVQKVVVLPTNNSVSGELILEELEVFKNHAPITTMKISSKKQQLYVSSNEGVSQVSLHRCHIYGTACADCCLARDPYCAWDGHSCSRFYPTGKRRSRRQDVRHGNPLTQCRGFNLKAYRNAAEIVQYGVKNNTTFLECAPKSPQASIKWLLQKDKDRRKEVKLNERIIATSQGLLIRSVQGSDQGLYHCIATENSFKQTIAKINFKVLDSEMVAVVTDKWSPWTWASSVRALPFHPKDIMGAFSHSEMQMINQYCKDTRQQHQQGDESQKMRGDYGKLKALINSRKSRNRRNQLPES |
